The source of these data is patent US20040266687A1, “Compositions and methods comprising protein activated receptor antagonists” (priority 2002, published 2004).

Test [1] concerns the target T1, PAR-2 (Homo sapiens, UniProt P55085).
T1 construct: endogenous in cells; host or cells: HUVEC or HT29 colon carcinoma cells
T1 sequence (P55085 26-397): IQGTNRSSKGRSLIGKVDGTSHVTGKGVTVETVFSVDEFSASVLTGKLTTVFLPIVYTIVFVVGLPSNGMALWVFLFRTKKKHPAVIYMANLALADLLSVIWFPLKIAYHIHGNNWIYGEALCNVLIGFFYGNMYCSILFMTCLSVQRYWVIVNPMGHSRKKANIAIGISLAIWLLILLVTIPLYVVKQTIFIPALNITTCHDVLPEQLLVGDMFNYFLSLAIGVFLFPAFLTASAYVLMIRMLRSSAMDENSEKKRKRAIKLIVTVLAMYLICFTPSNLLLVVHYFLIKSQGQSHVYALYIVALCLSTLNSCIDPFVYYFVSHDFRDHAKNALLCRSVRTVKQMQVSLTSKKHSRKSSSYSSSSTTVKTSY
Briefly: Inhibition of P2AP (SLIGKV)-stimulated PAR-2 signaling in cells pretreated with antagonist. It counts as cell-based. The note with it: result in words; cells pretreated with the substance, then P2AP. On the procedure:
(§1) Confluent HUVECs or HT29 colon carcinoma cells were loaded for 30-60 minutes with the fluorescent dye Fluo-4. Final concentration 4 uM Fluo-4, 0.02% pluronic acid in physiological buffer. Cells were then washed with assay buffer, (HBSS containing 1 mM CaCl2, 1 mM MgSO4, and 2.5 mM probenecid). Cells were stimulated with various doses of PAR-2 activating peptide, PAR-1 activating peptide or ATP.
(§2) Fluorescence was monitored using a Wallac 1470 fluorescent plate reader. (See Al-ani et. al Journal of Pharmacology and Experimental Therapeutics 290:2, 753-760)
In order to assess the potential of peptides selected above to block PAR-2 signaling, cells were pretreated with potential antagonist peptides for a predetermined amount of time and were subsequently treated with P2AP. Methods and protocols used were the same as those described in Example 1.

For test [2], the system named is ATP signaling (G-protein coupled receptors). Briefly: Activation study with ATP on cells pretreated with antagonist. It counts as cell-based. The note with it: cells pretreated with the substance. On the procedure:
as §1, §2
(§3) Both of these molecules signal through G-protein coupled receptors, and PAR-1 is very highly homologous to PAR-2, to the degree that the PAR-1 agonist peptide can signal through PAR-2 at high concentrations.

In the next test the target is T2, PAR-1 (Homo sapiens, UniProt P25116).
T2 construct: endogenous in cells; host or cells: HUVEC or HT29 colon carcinoma cells
T2 sequence (P25116 22-425): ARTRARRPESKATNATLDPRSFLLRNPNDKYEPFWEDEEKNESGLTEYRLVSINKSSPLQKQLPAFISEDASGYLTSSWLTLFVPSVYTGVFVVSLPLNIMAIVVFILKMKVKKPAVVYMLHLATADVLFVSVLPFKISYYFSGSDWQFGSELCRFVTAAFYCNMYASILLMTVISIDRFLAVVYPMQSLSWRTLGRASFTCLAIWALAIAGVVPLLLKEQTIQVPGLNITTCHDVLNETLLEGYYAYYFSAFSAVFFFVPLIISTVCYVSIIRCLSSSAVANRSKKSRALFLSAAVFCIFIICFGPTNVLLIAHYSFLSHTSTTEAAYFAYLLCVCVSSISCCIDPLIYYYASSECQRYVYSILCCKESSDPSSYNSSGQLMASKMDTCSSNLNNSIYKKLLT
Briefly: Activation study with PAR-1 activation peptide SFLLRN on cells pretreated with antagonist. The note with it: cells pretreated with the substance. It counts as cell-based. On the procedure:
as §1, §2, §3

The test system of a further test is Lewis lung carcinoma. Briefly: Lewis lung carcinoma (LLC) experimental metastatic model. Format: in vivo, mice. The note with it: metastatic tumor growth studies, FIG. 16. The procedure: In this tumor growth model, treatments were initiated on day 3 post inoculation, after tumor cells had homed to the lung, and started growing. […] At a dose of 4 mg/day tumor growth was inhibited by 75%. […] C57/B16 mice were injected i.v. with Lewis lung carcinoma. 3 days later, treatment of lung tumors was started with i.p. LIGK (SEQ ID NO:1) for 11 days.

Test [3] in a line: Arthritis in mice (anti-collagen II antibody plus LPS), foot thickness. It counts as in vivo. Conditions: 200 mg/kg/day i.p. for 7 days, Balb/c mice, FIG. 19. The procedure:
On day 0, Balb/c mice were injected IV with the 1 -2 mg 1B11 monoclonal anti-collagen II antibody. On day 1, animals were injected i.p with 20 ug LPS, and treatment with PAR-2 antagonists (200 mg/kg/day i.p). for 7 days is initiated. After treatment was completed, disease is quantified by measuring the thickness (swelling) in both feet of the mouse. This was compared to untreated mice. (p<0.05 vs. vehicle control)

The target of test [4] is T1, PAR-2. As to the kind of experiment: PAR signalling activity: calcium mobilization (Fluo-4) in response to peptides. It counts as cell-based. The note with it: result in words, FIG. 4A-4C. On the procedure:
as §1, §2
Calcium mobilization curves of the PAR-2 agonist SLIGKV (SEQ ID NO:25) compared with two truncated molecules LIGK (SEQ ID NO:1) and LIGKV (SEQ ID NO:2) are provided in FIG. 4A. […] Similar studies were performed on alanine substituted SLIGKV (SEQ ID NO:25) peptides (FIGS. 4B and 4C).
(In general: Calcium flux is commonly read through the fluorescence of an indicator in the cells.)

Test [5] addresses T3, Proteinase activated receptor-2 (PAR-2) (UniProt P55085 37-397, limits assumed).
T3 sequence (looked up): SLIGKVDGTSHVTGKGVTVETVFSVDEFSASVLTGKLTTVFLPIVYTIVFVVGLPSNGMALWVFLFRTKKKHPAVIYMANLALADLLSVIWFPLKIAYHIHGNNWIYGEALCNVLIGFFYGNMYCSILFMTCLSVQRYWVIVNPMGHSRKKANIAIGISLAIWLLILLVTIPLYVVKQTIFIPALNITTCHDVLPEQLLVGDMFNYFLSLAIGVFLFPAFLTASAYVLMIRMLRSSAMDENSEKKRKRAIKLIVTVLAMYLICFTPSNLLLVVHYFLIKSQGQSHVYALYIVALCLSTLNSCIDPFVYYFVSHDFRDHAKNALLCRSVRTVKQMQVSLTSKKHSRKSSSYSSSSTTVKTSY
As to the kind of experiment: cell-based or functional assay.

`Br.CC(C)CC(=O)N1CCN(C(=O)CCCCCN)CC1` [ENMD-547]: on PAR-2 [1], the “antagonist activity on PAR-2 signaling” value is recorded as “extremely potent inhibitor”. Also, the “inhibitory effect on signaling by ATP” value in test [2] is “no inhibitory effects”. The “inhibitory effect on signaling by PAR-1 (activation peptide SFLLRN)” value on PAR-1 was “no inhibitory effects”. In addition, the “antitumor activity relative to the parental LIGK molecule” value in the test on Lewis lung carcinoma is “approximately five fold”. For the same molecule, the “inflammation (arthritis, foot swelling)” value in test [3] was “inhibited inflammation”.

For the molecule LIGKV, the “calcium mobilization / signaling activity” value in the test with PAR-2 [4] is “Neither truncated molecule was able to induce calcium mobilization”. For the same molecule, the “antagonist activity on PAR-2 signaling” value in the test with PAR-2 [1] is given as “demonstrated antagonist activity”.

As for “SLIAKV [alanine substituted SLIGKV peptide]”, the “calcium mobilization / signaling activity” value in the test with PAR-2 [4] is “robust signaling activity”. On to “SLIGKA [alanine substituted SLIGKV peptide]”, for which, in the test with PAR-2 [4], the “calcium mobilization / signaling activity” value was “robust signaling activity”. Consider “SLIGKV (listed as Homo sapiens) [reference compound]”, for which the “calcium mobilization / signaling activity” value in the test with PAR-2 [4] is “typical spike of calcium release followed by degradation of signal”. In the case of LIGK [LIGK (SEQ ID NO:1)], in test [5], the “IC50 of inhibition of PAR-2 signaling (calcium mobilization stimulated by SLIGKV)” value is < 500 µM.
